In US20180111984A1 (Teva, published 2018):
Ends that are not written are not given here.

B1: human β-CGRP (1-37) (peptide)
peptide: ACNTATCVTHRLAGLLSRSGGMVKSNFVPTNVGSKAF-NH2
modifications: cysteine pairing not given here
notes: also called human β (1-37); 1-37 of β-CGRP (WT)
B2: human α-CGRP 1-36-COOH (peptide)
peptide: ACDTATCVTHRLAGLLSRSGGVVKNNFVPTNVGSKA-OH
modifications: ends and bridges not checked
notes: not C-terminally amidated; also called 1-36 (not amidated at the C-terminus)

What follows are binders tested against T1, antibody G1 Fab fragment (assay: Biacore competition: 10 µM peptide with 50 nM G1 Fab over human α-CGRP chip).
T1 construct: Fab expressed in E. coli; purified on Ni-NTA, tag not described
T1 sequence (VH, as listed by the source, chain 1 of 2): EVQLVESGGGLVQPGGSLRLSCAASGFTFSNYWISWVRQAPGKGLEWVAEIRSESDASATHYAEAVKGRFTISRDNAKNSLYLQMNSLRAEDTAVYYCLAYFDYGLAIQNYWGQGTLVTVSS
T1 sequence (VL, as listed by the source, chain 2 of 2): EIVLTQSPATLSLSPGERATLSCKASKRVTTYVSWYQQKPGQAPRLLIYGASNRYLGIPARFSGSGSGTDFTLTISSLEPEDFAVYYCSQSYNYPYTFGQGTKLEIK
Source text: Y axis represents percentage of binding blocked by the presence of the competing peptide compared with the binding in the absence of the competing peptide.
All these peptides are amidated at the C-terminus.

Q: How did the “percentage of binding blocked” value turn out when ACDTATCVTHRLAGLLSRSGGVVKNNFVPTNVGSKAF-NH2 (cysteine pairing not given here, also called full length human α-CGRP) [human α-CGRP 1-37 (WT)] was run?
A: 100%

Q: How did the “percentage of binding blocked” value turn out when SCNTATCVTHRLAGLLSRSGGVVKDNFVPTNVGSKAF-NH2 (cysteine pairing not given here, also called rat β (1-37)) [rat β-CGRP (1-37)] was run?
A: 100%

Q: B1 was tested. Which “percentage of binding blocked” value did it give?
A: 100%

Q: How did the “percentage of binding blocked” value turn out when NFVPTNVGSKAF-NH2 [human α-CGRP 26-37] was run?
A: 100%

Q: With VTHRLAGLLSRSGGVVKNNFVPTNVGSKAF-NH2 [human α-CGRP 8-37] as the binder, how does the “percentage of binding blocked” value read?
A: 100%

Q: How did the “percentage of binding blocked” value turn out when B2 was run?
A: ~40%
